The record followed here is patent publication US20240262878A1, “PHOTOACTIVATABLE GASDERMIN PROTEINS” (THE BOARD OF TRUSTEES OF THE UNIVERSITY OF ILLINOIS, priority 2021, published 2024).

Entries after “also recorded” stand apart in the source; their conditions may differ.

The experiment deals with Hela cells. In words: Optogenetic activation of PhoDer, membrane-targeted jRCaMP1b calcium flare imaging and fluctuation analysis. Type of experiment: cell-based. To be noted: PhoDer mutants in live Hela cells vs PhoDer. How it is done:
Cloning. Cloning and subcloning were performed using the DH5a strain of E. coli. All mammalian constructs were cloned into the pcDNA3.0 vector with a modified multiple cloning site. Plasmids were generated as follows. Gasdermin D gene was obtained from Addgene. A diffusible optogenetic GSDMD, referred to herein as “PhoDer” and set forth in SEQ ID NO: 33, was constructed according to the reported domains structure by ligating three fragments into the pcDNA3.0 vector in one reaction via Gibson Assembly (New England BioLabs). For each fragment, PCR was specifically designed to create appropriate complementation. The jRCaMP1b gene, encoding a sensitive red protein calcium indicator, was obtained from Addgene. Membrane targeted calcium indicator jRCaMP1b was constructed by ligating a PCR fragment of the calcium indicator into the restriction enzyme sites BamHI and EcoRI in a modified pcDNA3.0 vector carrying a 5′ fragment encoding the N-terminal Lyn kinase localization sequence.
Cell Culture. HeLa and RAW264.7 cells were maintained in Dulbecco's Modified Eagle Medium (DMEM) medium supplemented with 10% fetal bovine serum (FBS) and 1% penicillin and streptomycin. Cells were transfected at 50%-70% confluency using LIPOFECTAMINE® 2000 transfection reagent and incubated for 24 hours before imaging. Cells were never serum-starved. To examine endogenous inflammatory activation, RAW264.7 cells were treated with 100 ng/μL lipopolysaccharide (LPS, Invivogen) at the beginning of each experiment. Pretreatment to bias membrane composition by phosphatidylinositol 4,5-bisphosphate (PIP2) modifying enzymes was performed by incubating Hela cells in Hanks' Balanced Salt Solution (HBSS) buffer with inhibitors at 37° C. for 10 minutes to prior imaging at the following concentrations: for phosphoinositide 3-kinase (PI3K), cells were treated 10 μM wortmannin (Tocris); and for phospholipase C (PLC), cells were treated with 10 μM U73122 (Tocris). Cells were removed from the incubator and allowed to come to thermal equilibrium before being imaged in HBSS buffer at room temperature.
Fluorescence Imaging, Optogenetic Activation, and Post-Processing. All epifluorescence imaging was performed on a customized Nikon Ti2-E microscope equipped with individual control over excitation (EX) and emission (EM) filters, a fast LED light source (Lumencor) with fluid-cooled EMCCD (Andor), motorized stage, and examined under a 40× or 100× oil immersion objective under live focus tracking. For RFP, excitation (EX) and emission (EM) filter combinations (maxima/bandwidth in nm) are indicated. Cells were imaged at 12-15 second intervals. Emission intensities of individual cells were background-subtracted before normalization to zero time point, when optogenetic activation began. In the optical setup, optogenetic activation of PhoDer was performed using an EX filter at 440/20 nm for 20-30 ms across whole fields of view. This replicated the progression of endogenous activation of GSDMD observed in LPS-stimulated RAW264.7 cells. […] Where applicable, inhibitors were treated at the indicated concentration for 15 minutes prior to imaging.
Fluctuation Analysis and Quantification. To automate the objective isolation and quantitation of calcium flares, a post-processing algorithm was developed based on principles and normalization scheme detailed in work on photochromic stochastic optical fluctuation imaging (pcSOFI) (Dedecker et al. (2012) Proc. Natl. Acad. Sci. USA 109: 10909-10914). Briefly, fluctuation caused by the flares generate high autocorrelation signals in time-averaged series and yield high contrast at locales of the greatest ion flux. To truly reflect the local flux change, it is then normalized to remove dependence on the number of biosensors reporting at the given location using a scheme detailed previously (Mo et al. (2017) Nat. Methods 14 (4): 427-434). […]

B1: m1: PhoDer mutant K51Q/R53Q/K55Q (SEQ ID NO:34) (protein)
chain: MGSAFERVVRRVVQELDHGGEFIPVTSLQSSTGFQPYCLVVRKPSSSWFWQPQYQCVNLSIKDILEPDAAEPDVQRGRSFHFYDAMDGQIQGSVELAAPGQAKIAGGAAVSDSSSTSMNVYSLSVDPNTWQTLLHERHLRQPEHKVLQQLRSRGDNVYVVTEVLQTQKEVEVTRTHKREGSGRFSLPGATCLQGEGQGHLSQKKTVTIPSGSTLAFRVAQLVIDSDLDVLLFPDKKQRTFQPPATGHKRSTSEGAWPQLPSGLSMMRCLHNGGGSVIPDYFKQSFPEGYSWERSMTYEDGGICIATNDITMEGDSFINKIHFKGTNFPPNGPVMQKRTVGWEASTEKMYERDGVLKGDVKMKLLLKGGGHYRCDYRTTYKVKQKPVKLPDYHFVDHRIEILSHDKDYNKVKLYEHAVARNSTDSMDELYKGGSGGMVSKGEETITSVIKPDMKNKLRMEGNVNGHAFVIEGEGSGKPFEGIQTIDLEVKEGAPLPFAYDILTTAFHYGNRVFTKYPRGGGVPAEGAFTEDFQGLRAEVETISKELELLDRELCQLLLEGLEGVLRDQLALRALEEALEQGQSLGPVEPLDGPAGAVLECLVLSSGMLVPELAIPVVYLLGALTMLSETQHKLLAEALESQTLLGPLELVGSLLEQSAPWQERSTMSLPPGLLGNSWGEGAPAWVLLDECGLELGEDTPHVCWEPQAQGRMCALYASLALLSGLSQEPH
Regarding B1, the “pore opening/closing dynamics (automated flare quantification)” value was “significantly reduced pore opening/closing dynamics; also recorded: significant changes in pore activity”.

B2: m2: PhoDer mutant K51E/R53E/K55E (SEQ ID NO:35) (protein)
chain: MGSAFERVVRRVVQELDHGGEFIPVTSLQSSTGFQPYCLVVRKPSSSWFWEPEYECVNLSIKDILEPDAAEPDVQRGRSFHFYDAMDGQIQGSVELAAPGQAKIAGGAAVSDSSSTSMNVYSLSVDPNTWQTLLHERHLRQPEHKVLQQLRSRGDNVYVVTEVLQTQKEVEVTRTHKREGSGRFSLPGATCLQGEGQGHLSQKKTVTIPSGSTLAFRVAQLVIDSDLDVLLFPDKKQRTFQPPATGHKRSTSEGAWPQLPSGLSMMRCLHNGGGSVIPDYFKQSFPEGYSWERSMTYEDGGICIATNDITMEGDSFINKIHFKGTNFPPNGPVMQKRTVGWEASTEKMYERDGVLKGDVKMKLLLKGGGHYRCDYRTTYKVKQKPVKLPDYHFVDHRIEILSHDKDYNKVKLYEHAVARNSTDSMDELYKGGSGGMVSKGEETITSVIKPDMKNKLRMEGNVNGHAFVIEGEGSGKPFEGIQTIDLEVKEGAPLPFAYDILTTAFHYGNRVFTKYPRGGGVPAEGAFTEDFQGLRAEVETISKELELLDRELCQLLLEGLEGVLRDQLALRALEEALEQGQSLGPVEPLDGPAGAVLECLVLSSGMLVPELAIPVVYLLGALTMLSETQHKLLAEALESQTLLGPLELVGSLLEQSAPWQERSTMSLPPGLLGNSWGEGAPAWVLLDECGLELGEDTPHVCWEPQAQGRMCALYASLALLSGLSQEPH
Regarding B2, the “pore opening/closing dynamics (automated flare quantification)” value is listed as “significantly reduced pore opening/closing dynamics; also recorded: significant changes in pore activity”.
